The source of these data is article PMC8546710.

Assay [1] addresses CDV M protein (strain A75/17) mutant E89Y. The experiment in a line: coimmunoprecipitation (coIP efficiency index, Western blot band quantification). The settings on record: 2xHA-M and FLAG-M co-expressed in HEK-293T cells; IP anti-HA, IB anti-M; parent: est. 100; read off a plot.
In assay [2] the target is CDV M protein (strain A75/17) mutant A94S. Described as above. The settings on record: 2xHA-M and FLAG-M co-expressed in HEK-293T cells; IP anti-HA, IB anti-M; parent: est. 100; read off a plot.
In assay [3] the target is CDV M protein (strain A75/17) mutant K243E. Described as above. The settings on record: 2xHA-M and FLAG-M co-expressed in HEK-293T cells; IP anti-HA, IB anti-M; parent: est. 100; read off a plot.
The target in assay [4] is CDV M protein (strain A75/17) mutant P87A. The assay is described as above. As to conditions: 2xHA-M and FLAG-M co-expressed in HEK-293T cells; IP anti-HA, IB anti-M; parent: est. 100; read off a plot.
Assay [5] deals with CDV M protein (strain A75/17) mutant D235N. The assay is described as above. As to conditions: 2xHA-M and FLAG-M co-expressed in HEK-293T cells; IP anti-HA, IB anti-M; parent: est. 100; read off a plot.
For assay [6], the target named is CDV M protein (strain A75/17) mutant Y236F. Described as above. As to conditions: 2xHA-M and FLAG-M co-expressed in HEK-293T cells; IP anti-HA, IB anti-M; parent: est. 100; read off a plot.
Assay [7] concerns the target CDV M protein (strain A75/17) mutant E89H. The assay is described as above. The settings on record: 2xHA-M and FLAG-M co-expressed in HEK-293T cells; IP anti-HA, IB anti-M; parent: est. 100; read off a plot.
Assay [8] concerns the target CDV M protein (strain A75/17) mutant E242Q. Described as above. The settings on record: 2xHA-M and FLAG-M co-expressed in HEK-293T cells; IP anti-HA, IB anti-M; parent: est. 100; read off a plot.
The target of assay [9] is CDV M protein (strain A75/17) mutant G245P. The assay is described as above. The settings on record: 2xHA-M and FLAG-M co-expressed in HEK-293T cells; IP anti-HA, IB anti-M; parent: est. 100; read off a plot.
Assay [10] has as its target CDV M protein (strain A75/17) mutant L239D. The description is as above. The settings on record: 2xHA-M and FLAG-M co-expressed in HEK-293T cells; IP anti-HA, IB anti-M; parent: est. 100; read off a plot.
Assay [11] concerns the target CDV M protein (strain A75/17) mutant K238E (canine distemper virus, strain A75/17). The experiment in a line: co-IP; FLAG-M and 2×HA-longlinker-M, both bearing the same mutation, cotransfected in HEK-293T; lysed 24 h posttransfection in 50 mM Tris pH 7.4, 150 mM NaCl, 0.05% NP-40, 5% glycerol, 20 mM sodium molybdate; IP with anti-HA (16B12) and Dynabeads Protein G at 4°C; blot with polyclonal anti-CDV M; coIP efficiency index = (coIP/IP)/(ratio in total lysates), normalised to wt = 100%.

For assay [12], the target named is CDV M protein (strain A75/17) mutant K240Q. The experiment in a line: coimmunoprecipitation (coIP efficiency index, Western blot band quantification). As to conditions: 2xHA-M and FLAG-M co-expressed in HEK-293T cells; IP anti-HA, IB anti-M; parent: est. 100; read off a plot. (A western blot detects proteins with antibodies after separation by electrophoresis.)
Assay [13] concerns the target CDV M protein (strain A75/17) mutant E89D. Described as above. As to conditions: 2xHA-M and FLAG-M co-expressed in HEK-293T cells; IP anti-HA, IB anti-M; parent: est. 100; read off a plot.
Assay [14] concerns the target CDV M protein (strain A75/17) mutant E89G. The description is as above. The settings on record: 2xHA-M and FLAG-M co-expressed in HEK-293T cells; IP anti-HA, IB anti-M; parent: est. 100; read off a plot.
Assay [15] addresses CDV M protein (strain A75/17) mutant L96N. The description is as above. The settings on record: 2xHA-M and FLAG-M co-expressed in HEK-293T cells; IP anti-HA, IB anti-M; parent: est. 100; read off a plot.
Assay [16] deals with CDV M protein (strain A75/17) mutant G245P (canine distemper virus, strain A75/17). Nature of the assay: co-IP; FLAG-M and 2×HA-longlinker-M, both bearing the same mutation, cotransfected in HEK-293T; lysed 24 h posttransfection in 50 mM Tris pH 7.4, 150 mM NaCl, 0.05% NP-40, 5% glycerol, 20 mM sodium molybdate; IP with anti-HA (16B12) and Dynabeads Protein G at 4°C; blot with polyclonal anti-CDV M; coIP efficiency index = (coIP/IP)/(ratio in total lysates), normalised to wt = 100%.

The target of assay [17] is CDV M protein (strain A75/17) mutant K92E. Nature of the assay: coimmunoprecipitation (coIP efficiency index, Western blot band quantification). As to conditions: 2xHA-M and FLAG-M co-expressed in HEK-293T cells; IP anti-HA, IB anti-M; parent: est. 100; read off a plot.
Assay [18] concerns the target CDV M protein (strain A75/17) mutant E89R. Described as above. As to conditions: 2xHA-M and FLAG-M co-expressed in HEK-293T cells; IP anti-HA, IB anti-M; parent: est. 100; read off a plot.
For assay [19], the target named is CDV M protein (strain A75/17) mutant E89K. The assay is described as above. As to conditions: 2xHA-M and FLAG-M co-expressed in HEK-293T cells; IP anti-HA, IB anti-M; parent: est. 100; read off a plot.
Assay [20] has as its target CDV M protein (strain A75/17) mutant K238E. Described as above. The settings on record: 2xHA-M and FLAG-M co-expressed in HEK-293T cells; IP anti-HA, IB anti-M; bar marked 'Poorly expressed'; parent: est. 100; read off a plot.

Take “canine distemper virus (CDV) matrix (M) protein, strain A75/17, wild type E89Y”: the percent of parent (percent to wt) in assay [1] turned out to be 91. For the substance “canine distemper virus (CDV) matrix (M) protein, strain A75/17, wild type A94S”, the percent of parent (percent to wt) in assay [2] stood at 98. Take “canine distemper virus (CDV) matrix (M) protein, strain A75/17, wild type K243E”: the percent of parent (percent to wt) in [3] was 97. With “canine distemper virus (CDV) matrix (M) protein, strain A75/17, wild type P87A”, the percent of parent (percent to wt) in assay [4] was found to be 120. Turning to “canine distemper virus (CDV) matrix (M) protein, strain A75/17, wild type D235N”, the percent of parent (percent to wt) in assay [5] is 120.

“canine distemper virus (CDV) matrix (M) protein, strain A75/17, wild type Y236F”: the percent of parent (percent to wt) in assay [6] turned out to be 84.

“canine distemper virus (CDV) matrix (M) protein, strain A75/17, wild type E89H”: the percent of parent (percent to wt) in assay [7] stood at 98. In the case of “canine distemper virus (CDV) matrix (M) protein, strain A75/17, wild type E242Q”, the percent of parent (percent to wt) in [8] is 150. For “canine distemper virus (CDV) matrix (M) protein, strain A75/17, wild type G245P”, the percent of parent (percent to wt) in [9] stood at 4.

“canine distemper virus (CDV) matrix (M) protein, strain A75/17, wild type L239D”: the percent of parent (percent to wt) in assay [10] stood at 110. For the substance “CDV M protein (strain A75/17) mutant K238E (natural protein)”, the coIP efficiency index (normalised to wt) in assay [11] was determined as 9.7%. For “canine distemper virus (CDV) matrix (M) protein, strain A75/17, wild type K240Q”, the percent of parent (percent to wt) in assay [12] turned out to be 100. In the case of “canine distemper virus (CDV) matrix (M) protein, strain A75/17, wild type E89D”, the percent of parent (percent to wt) in assay [13] is 80. For the substance “canine distemper virus (CDV) matrix (M) protein, strain A75/17, wild type E89G”, the percent of parent (percent to wt) in assay [14] turned out to be 47. As to “canine distemper virus (CDV) matrix (M) protein, strain A75/17, wild type L96N”, the percent of parent (percent to wt) in [15] was 96. As to “CDV M protein (strain A75/17) mutant G245P (natural protein)”, the coIP efficiency index (normalised to wt) in [16] amounted to 3.8%. Consider “canine distemper virus (CDV) matrix (M) protein, strain A75/17, wild type K92E”, for which the percent of parent (percent to wt) in assay [17] worked out at 87. Regarding “canine distemper virus (CDV) matrix (M) protein, strain A75/17, wild type E89R”, the percent of parent (percent to wt) in assay [18] turned out to be 77. On to “canine distemper virus (CDV) matrix (M) protein, strain A75/17, wild type E89K”, for which the percent of parent (percent to wt) in [19] came to 83. Consider “canine distemper virus (CDV) matrix (M) protein, strain A75/17, wild type K238E”, for which the percent of parent (percent to wt) in assay [20] is 9.
